Measured values taken from the supplement of paper PMC9170038.

System: K4 kissing-loop RNA reporter
Assay: apparent KD of K4 kissing-loop reporter; higher = weaker reporter binding
Settings: Eterna round: R107
Method: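 RNA-MaP round R107: designed RNA switches with theophylline, tryptophan, arginine or FMN aptamers are transcribed on-chip within common flanks. They are titrated with a labelled K4 kissing-loop RNA reporter in RNA-MaP buffer (100 mM Tris pH 7.5, 80 mM KCl, 4 mM MgCl2), without ligand or with the indicated ligand. Median apparent KD per design.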

[1] = input ligand: theophylline 20 uM
[2] = input ligand: tryptophan 2.4 mM
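Further: bound reporter read as fluorescence of individual clusters on recovered sequencing chips by microscopy, with normalized cluster intensities fitted with a binding model.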

Sequence	apparent KD of K4 kissing-loop reporter (input ligand: FMN 200 uM) [nM]	apparent KD of K4 kissing-loop reporter (input ligand: arginine 13.2 mM) [nM]	apparent KD of K4 kissing-loop reporter (input ligand: none) [nM]	apparent KD of K4 kissing-loop reporter [1] [nM]	apparent KD of K4 kissing-loop reporter [2] [nM]
UGUGAUGUGUAGUGUGAUGUUUUGAAGGAUACCAGAGUGUUGUUAUUCCCUUGGCAGCUUGAGUGAUGUUUGAUGUUGUUGUUGU [aawemullin]	324	179	260	229	224
UUUCUAUCGGGAAGGAGCGUGAAUGAUAAUGGAUAUAGUGAUGUUAUAUAUAAGAACGAAUCGCAGGUAGGUCGCCCGGAUGACU [SSArgB.R]	346	357	323	389	169
AAAUAGAUCAGUCAUCCAGUGAUGUUGGAAGGAGCGUGCGAAAGCACAGGUAGGUCGCCAGAAUAAAAGUGGCUGAUCAAAAUAA	273	318	322	467	178
UGACACUCAACGGCCGCCACUACCGUCGCCGAAUUCCGCAGUGAUGUUGCGAUCCUCCGAUUGUCUAGGACCGGGUUGUUUGGGC [theeternabot_exclusion_KL_Trp_B_43]	181	209	223	216	162
UGUACCGAGUCAGGAUAUGUCGUCGAAAGACGAAAUGGAGUGAUGUUCCUUAAACUGCGAAAGCAGACAGAAGGGAUUUGGUACU [FmnBS 29 U77]	207	654	739	738	717
AAUGCAUUGUGAAGGAGCGCGUUAAGCAGUGAUGUUGCUUUUAUAUUUUUCAGUUUUAUAUCGCAGGUAGGUCGCACUUUGCAUA [JR_Nu_SSArginiB_Sub029]	172	158	173	192	148
CCUAUCUCAUACGAUACCAGUCCGAGUGAUGUUCGAACAUAAAUUAGUUUGCCAUAUAAUGACCCUUGGCAGCGUAUGGGAUAGG [Ex Theophylline B K4 12]	576	448	550	623	522
CGAAUGGAACUAUUGAACAUUUGUAUUGGCAAGGAUAUCGGGCUAUCGAGAAGGUGCUAUUUGGGCAGUGAUGUUGCCGAUUUAA [theeternabot_sameState_KL_FMN_A_10]	43.3	94.4	54.1	90.9	50
AAAUAUUCGAGUGAUGUUCGAUAAAUUUCAGAGGAUAUGCUUAAAAGCAGAAGGCUGUAUUUCUAUUUGUUAUUAAAUUUUAUAA [JR_ExcFMNA_Sub002]	90.3	107	91.1	111	76.9
AUACAGCGACGCGCUAGUGAUGUUAGCGAAGGAGCGACUCAUGAGUCAGGUAGGUCGCGCUAACGUGGUUACGAGAGUAACCAGU [Arg A Ex t1a]	93.3	86.8	93.6	80.1	89.4
UUAUAAUUCAGUGAUGUUGAAAAUAUAACAGAGGAUAUGCGUUUAAGCAGAAGGCUGAAAUACUAUACUUUAAUCUAUUAAAUUU [JR_SSFMNA_Sub019]	232	377	313	332	212
AAGCAGUCACUCGAAACCAUCGAAGAUGGGCGAGGACCGGUACGGCCGCCACUCGGAGUGAUGUUCCGAAGACUGCAAAAUAAAA	377	348	592	443	354
GCAUCCAUGGCAGGAUAUAGGUUCGUGGAGUGAUGUUCCAUAGCCCGAGUGAUGUUCGUUAUCCGCCUAGAAGGGCCGUGGAUGC [whbob_Ex_FMNB__2th214]	248	184	235	192	212
UGUACUAUUGUGAGUGAUGUUCACUUCGAUACCAGCAGAGCGAUCUGCCCUUGGCAGCGAGUUAACUGCCGAAAGGCAAGGAUUA [Theo B SS t9]	535	528	546	546	378
GAACAUAGUAAAGGAUAUUCCUGCCUCGCGCGAUUGAUUAGUGAUGUUGACGAUAUCGCUUUGAGGGAAGAAGGUUAACAAGUCA [theeternabot_exclusion_KL_FMN_B_4]	761	659	678	478	596
AACGUGGCCAAAGGAUAUCUCCCUACGUCGUUGCAUCUACCUCUGUUUGCUCUGAGUGAUGUUUGGAGAGAAGGUUGAGGCGAUU [theeternabot_exclusion_KL_FMN_B_29]	532	317	442	513	387
GUAUUUCCCUCGGAUACCAGUCAUCAUGAGUAUAGUGAUGUUGUACGUCCGGAUGAUUUUGACCCUUGGCAGCCGUCUCCUUGAA [theeternabot_sameState_KL_Theo_B_49]	515	371	593	497	540
AACCUUGUAGUGAUGUUGCAAGGCGCUGAUACCAGUCACAGCCACGACCCUUGGCAGCAGUGGCGUUCAUGAUAAAAUAGAUUAA [theeternabot_sameState_KL_Theo_A_49]	42	41.5	41.4	37	39.9
AUGAGGAGCAGUGAUCCUAUUCCAUGGGAAGGAGCGUAGGAUACUACAGGUAGGUCGCCCAGUGAUGUUGGGCGCGUGCUCUUGG [Zaqua]	159	133	133	178	146
GCCGUAGAUUGAAGGAGCGCUAGUCUACGAUGACACACAGUGAUGUUGUGCGUGAUUUCAUAGCAGGUAGGUCGCAAUCUACGGC	230	195	214	186	183
GGAUGGUAGGCGGCCGCCACUAAAUGUGAACACAUACAAGCCAGUGAUGUUGGUAUGAUGGACAAUAGGACCGGGCCUAGAUAGA [Exclusion - Tryptophan B (Freestyle 7)]	595	448	555	495	542
ACGUGCACCAGUGAUGUUGGAAAAUAUGAAGGAGCGGGAGAAAGCCCAGGUAGGUCGCAUAAUAGCACGAGCCACGAAAGUGGCA	233	145	178	141	131

Sequence	apparent KD of K4 kissing-loop reporter (input ligand: FMN 200 uM) [nM]	apparent KD of K4 kissing-loop reporter (input ligand: arginine 13.2 mM) [nM]	apparent KD of K4 kissing-loop reporter (input ligand: none) [nM]	apparent KD of K4 kissing-loop reporter [1] [nM]	apparent KD of K4 kissing-loop reporter [2] [nM]
AAUUUACAUUAAUUAUUUAAAGGUUCAGAAGGAGCGUGAAUUAACACAGGUAGGUCGCUGAGCGAGUGAUGUUCGCUAUAUACUA [JR_ExcArginiA_Sub003]	62.7	68.9	65.7	91.1	49.4
UGGAUAUAGUGAUGUUAUAUAGAGAUGGAUACCAGCUAAGAGAAUGGCCCUUGGCAGCCGAAAGAAGUAUCAUUAGAGAAGAAUG [ExTheophyl.Ag]	261	249	259	276	214
UGAUUUAACUGAAGGAGCGGCAAUUGAGAAGGAAAUAUAGUGAUGUUAUAUAAGAGAGAGAGCCAGGUAGGUCGCAGAGGGAGGA [ExArgB.G]	185	131	152	198	118
CGUUUAUAGCAGGAUACCAGUACCCAUUAAGUACGUUAAUAGUAGAGUGAUGUUCUAAAGUACCCUUGGCAGCUUCCCGUGACCC [ExTheophylB.X]	103	164	124	176	94.1
GUACGCUCUCGAGUGAUGUUCGGUAAUAGAGAGGAUAUCGCUUUUGCGAGAAGGCUCUGAAUGAGGAAACUCGUUCUGAGUGUAC [FMN A 19]	436	362	389	358	419
AGUAGUUGGACGGCCGCCACUGGAACAGCUUUGCCAAAGGCAGAGCACUAGAGUGAUGUUCUAGCUAGGACCGGGUCCAACUACA [whbob_SS_Tryp_B_t16]	338	89.7	440	249	882
UGUGUUUACCUGACUCAGUGAUGUUGAGAAGGAGCGUGCUAAUGCACAGGUAGGUCGCUCAACCUAAAUUCAGGUGAGCACUAAA	587	250	560	271	478
AAAAUUAACAAGAGUGAUGUUCUUGUUAGACAGGAUAUCGGUUUAACGAGAAGGGUCGUGGCUCCAUUGGGCCCAGUGGUUCACC [Mazareri]	309	478	687	326	439
AUUCGUUUAUGUGAUACCAGACUUUGCAGUGAUGUUGCUUUAAUUAAAGAUGUUUAGUUUGUCCCUUGGCAGCACUAUUUAUUUA [JR_SSTheophyB_Sub001]	54	113	68.4	129	48.8
AACAACUUGUUUGUCGGGUGUUCGCGCGAUACCAGCCGAAUGGAUGGCCCUUGGCAGCGCAGCGAGUGAUGUUCGCCCGCUUGAC [Exclusion Theophylline A GF 24]	611	422	552	529	583
GUCAAGGGUGCGGCCGCCACUUCUAGUGAUGUUAGUUUGUCUUCGUUCAACCGGCGUCUGCACGCAAGGACCGGGCACCAGCGAC [theeternabot_exclusion_KL_Trp_B_10]	552	350	567	636	360
CACAGAUCCUAAGGAUAUGGAGUGAUGUUCGCAAGUUCUUGGUGUGCAUUCAUCUGUCCUAUCAACCCAGAAGGUAGGAAGUCAC [theeternabot_exclusion_KL_FMN_B_1]	607	516	550	993	604
GGACCUCAGUGAUGUUGAGGUAACACUGAUACCAGCGACUUAAUUCGCCCUUGGCAGCAGUCCACCGAGGUAUCUGAUUAGGUCU [#23 K4 Theophylline A Exclusion]	211	220	216	287	190
UGACUGGAUUGAAGGAGCGCUAAACUCCUAGUGAUGUUAGGGACACGAGACAAAGUCUCGAGGCAGGUAGGUCGCAAUCUAGUCU [FiskerMod 6 - Jieux - Same State - Arginine B]	309	225	247	296	249
AGUGAUGUAUGGCGGUUUGUCACUUAUAAUCAGGAUAUAUAAACAAAUAGAAGGGAUGGCGGAGUGAUGUUCCGCCGGCCGCCAU [FMN A Exl V5]	170	136	167	172	149
UGAUACCAGACGGCCGCCACUCCCGUAAGUCAAAGACUUACGAAGAGGGUUUUUCAGUGAUGUUGGAGGACCGGGUCUGGUAUCU [FiskerMod 17 - Jieux - Exclusion - Tryptophan B]	516	420	545	506	824
UCAGUGAUGUUGAACAAAUAAUGGUUCCUAAAGGAUAUCCACAGAUGGAGAAGGUUAGUAGCGGCUCGCACAUCGUAGGACAAAU [theeternabot_exclusion_KL_FMN_A_1]	767	648	734	602	526
GGAUAGGACAUAGGAUAUGGUAGUGAUGUUACCAAACUGGUUAAACAUGUCAGAAAACUGGCAUGACCAGAAGGAUGUCCUAUCG [FmnBX 27 U11+A75]	85.2	63.2	66.3	58.8	63.5
AGACUACUGACAGGAUAUGGCAUCCUGGUCGUAUACCGAAAGGUAUACGAUUUUCUUCUAGUGAUGUUAGAAGGGUCGGUAGUCA [Omei KL FMN B Exc B v15]	128	86.3	97.3	89.2	92.7
AGCCGAAAGGCGAGUGCUGUCACUCCGGAAGGAGCGCAGGAAACUGCAGGUAGGUCGCCGGAGUGAUGUUCCGGUGCAGCACUCA [Omei KL Arginine A Exc B v6]	614	317	1120	561	800
GGCACUUUUGGUAGAAACCAUCUACCUCUAUAGGAUAUGCCGAAAGGCAGAAGGAUAGACCUACAGAGUGAUGUUCUGCGUGCCU	692	406	719	460	503
